Data as given in publication PMC6471336, “Production and Characterization of Recombinant Wild Type Uricase from Indonesian Coelacanth (L. menadoensis) and Improvement of Its Thermostability by In Silico Rational Design and Disulphide Bridges Engineering” (International Journal of Molecular Sciences, 2019).

Columns and labels:
purified protein = substrate: O=c1[nH]c(=O)c2[nH]c(=O)[nH]c2[nH]1; test: purified protein; assay type: biochemical, Latimeria menadoensis; conditions: 50 mM sodium borate pH 8.0, 30 °C, 15-120 µM uric acid
[1] = target: the molecule itself; test: SEC; 16/60 Sephacryl S-300 HR gel-filtration column; molecular weight under native condition calculated from the retention volume (Kav) against a calibration curve

| Protein | Km (purified protein) [µM] | kcat (purified protein) [s⁻¹] | kcat/Km (purified protein) [M⁻¹ s⁻¹] | stoichiometry N [1] |
| --- | --- | --- | --- | --- |
| L. menadoensis uricase, wild type (LM-UOX-6His) (enzyme, UniProt M3XGK0 1-306, looked up, Uricase (urate oxidase) of Latimeria menadoensis, 306 amino acids; synthetic cDNA amplified with primers from the start codon to the last codon (no stop codon), cloned NdeI/XhoI into pET20b(+); The His6 tag is joined to the protein by two residues from the XhoI site; also called WT; WT LM-UOX; source: E. coli BL21(DE3), purified (Ni-NTA IMAC, gel filtration); not shown: His6, C-terminal, kept) MSHYVSSTRFQKDTDVEFVRTGYGKNIVKVLHIKREGKTHYIKEVEVAVQLALKSRKDYLYGDNSDIIPTDTMKNTVHALAKLKGINTIEEFAMDICEHFLTSFNHVTRANTYVEEAPWKRMEKNEVKHVHAFIYSPEATRFCEVEHHQNEPPVVHSGIKDMKVLKTTQSGFEGFVKDRFTTLPEVTDRCFSTVIYSKWLYNRSKNIDFDAAWKTVYDVIIEKFAGPYECGEYSPSVQKTLYETQVLCLNRVPEIEEVEIVMPNKHYFTIDMSKIGIVNKDEVLLPLDNPSGNITGTVRRKAHSKL | 18.43 ± 0.4 | 29.9 ± 0.3 | 1.62e+06 | 4 |
| L. menadoensis uricase N289C mutant (enzyme, UniProt M3XGK0 1-306, looked up, Uricase (urate oxidase) of Latimeria menadoensis, 306 amino acids, same construct as the wild type (pET20LM-UOX) with N289C by site-directed mutagenesis; His6 tag joined by two residues from the XhoI site, as in m1; source: E. coli BL21(DE3), purified (Ni-NTA IMAC, gel filtration); not shown: His6, C-terminal, kept) MSHYVSSTRFQKDTDVEFVRTGYGKNIVKVLHIKREGKTHYIKEVEVAVQLALKSRKDYLYGDNSDIIPTDTMKNTVHALAKLKGINTIEEFAMDICEHFLTSFNHVTRANTYVEEAPWKRMEKNEVKHVHAFIYSPEATRFCEVEHHQNEPPVVHSGIKDMKVLKTTQSGFEGFVKDRFTTLPEVTDRCFSTVIYSKWLYNRSKNIDFDAAWKTVYDVIIEKFAGPYECGEYSPSVQKTLYETQVLCLNRVPEIEEVEIVMPNKHYFTIDMSKIGIVNKDEVLLPLDCPSGNITGTVRRKAHSKL | 30.46 ± 0.1 | 34.06 ± 0.1 | 1.12e+06 | 4 |
| L. menadoensis uricase A132C/A225C mutant (enzyme, UniProt M3XGK0 1-306, looked up, His6 tag joined by two residues from the XhoI site, as in m1; source: E. coli BL21(DE3), purified (Ni-NTA IMAC, gel filtration); not shown: His6, C-terminal, kept) MSHYVSSTRFQKDTDVEFVRTGYGKNIVKVLHIKREGKTHYIKEVEVAVQLALKSRKDYLYGDNSDIIPTDTMKNTVHALAKLKGINTIEEFAMDICEHFLTSFNHVTRANTYVEEAPWKRMEKNEVKHVHCFIYSPEATRFCEVEHHQNEPPVVHSGIKDMKVLKTTQSGFEGFVKDRFTTLPEVTDRCFSTVIYSKWLYNRSKNIDFDAAWKTVYDVIIEKFCGPYECGEYSPSVQKTLYETQVLCLNRVPEIEEVEIVMPNKHYFTIDMSKIGIVNKDEVLLPLDNPSGNITGTVRRKAHSKL | 39.19 ± 0.5 | 58.2 ± 0.6 | 1.49e+06 | 4 |
| L. menadoensis uricase D288C mutant (enzyme, UniProt M3XGK0 1-306, looked up, Uricase (urate oxidase) of Latimeria menadoensis, 306 amino acids, same construct as the wild type (pET20LM-UOX) with D288C by site-directed mutagenesis; His6 tag joined by two residues from the XhoI site, as in m1; source: E. coli BL21(DE3), purified (Ni-NTA IMAC, gel filtration); not shown: His6, C-terminal, kept) MSHYVSSTRFQKDTDVEFVRTGYGKNIVKVLHIKREGKTHYIKEVEVAVQLALKSRKDYLYGDNSDIIPTDTMKNTVHALAKLKGINTIEEFAMDICEHFLTSFNHVTRANTYVEEAPWKRMEKNEVKHVHAFIYSPEATRFCEVEHHQNEPPVVHSGIKDMKVLKTTQSGFEGFVKDRFTTLPEVTDRCFSTVIYSKWLYNRSKNIDFDAAWKTVYDVIIEKFAGPYECGEYSPSVQKTLYETQVLCLNRVPEIEEVEIVMPNKHYFTIDMSKIGIVNKDEVLLPLCNPSGNITGTVRRKAHSKL | 189.65 ± 0.2 | 65.07 ± 0.3 | 340000 | 4 |
| L. menadoensis uricase I27C/N289C mutant (enzyme, UniProt M3XGK0 1-306, looked up, His6 tag joined by two residues from the XhoI site, as in m1; which cysteines pair (C27 with C289 of the other subunit of a dimer) is a prediction only; source: E. coli BL21(DE3), purified (Ni-NTA IMAC, gel filtration); not shown: His6, C-terminal, kept) MSHYVSSTRFQKDTDVEFVRTGYGKNCVKVLHIKREGKTHYIKEVEVAVQLALKSRKDYLYGDNSDIIPTDTMKNTVHALAKLKGINTIEEFAMDICEHFLTSFNHVTRANTYVEEAPWKRMEKNEVKHVHAFIYSPEATRFCEVEHHQNEPPVVHSGIKDMKVLKTTQSGFEGFVKDRFTTLPEVTDRCFSTVIYSKWLYNRSKNIDFDAAWKTVYDVIIEKFAGPYECGEYSPSVQKTLYETQVLCLNRVPEIEEVEIVMPNKHYFTIDMSKIGIVNKDEVLLPLDCPSGNITGTVRRKAHSKL | 35.39 ± 0.1 | 32.58 ± 0.2 | 920000 | 4 |
| L. menadoensis uricase S136C mutant (enzyme, UniProt M3XGK0 1-306, looked up, Uricase (urate oxidase) of Latimeria menadoensis, 306 amino acids, same construct as the wild type (pET20LM-UOX) with S136C by site-directed mutagenesis; His6 tag joined by two residues from the XhoI site, as in m1; source: E. coli BL21(DE3), purified (Ni-NTA IMAC, gel filtration); not shown: His6, C-terminal, kept) MSHYVSSTRFQKDTDVEFVRTGYGKNIVKVLHIKREGKTHYIKEVEVAVQLALKSRKDYLYGDNSDIIPTDTMKNTVHALAKLKGINTIEEFAMDICEHFLTSFNHVTRANTYVEEAPWKRMEKNEVKHVHAFIYCPEATRFCEVEHHQNEPPVVHSGIKDMKVLKTTQSGFEGFVKDRFTTLPEVTDRCFSTVIYSKWLYNRSKNIDFDAAWKTVYDVIIEKFAGPYECGEYSPSVQKTLYETQVLCLNRVPEIEEVEIVMPNKHYFTIDMSKIGIVNKDEVLLPLDNPSGNITGTVRRKAHSKL | 15.28 ± 0.1 | 22.49 ± 0.1 | 1.47e+06 | 4 |
